T1: biotinylated extracellular domain of human CD123 (SEQ ID NO: 88), Fc and Avi tagged (human, UniProt P26951 19-303, biotinylated with BirA-GST (Avi tag))
T1 construct: also called hCD123
T1 sequence: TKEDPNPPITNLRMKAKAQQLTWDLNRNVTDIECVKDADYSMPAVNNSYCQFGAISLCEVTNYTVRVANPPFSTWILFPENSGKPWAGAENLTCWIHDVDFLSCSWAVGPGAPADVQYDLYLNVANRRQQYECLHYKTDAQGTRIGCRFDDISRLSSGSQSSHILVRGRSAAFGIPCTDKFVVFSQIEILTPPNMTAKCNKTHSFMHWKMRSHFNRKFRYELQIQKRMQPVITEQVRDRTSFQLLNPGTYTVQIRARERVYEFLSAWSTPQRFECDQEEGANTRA

T2: extracellular domain of human CD70 (SEQ ID NO: 89), hCD70-Fc-trimer, ACRO Biosystems (human, UniProt P32970 52-193, chemically biotinylated where the biotinylated form was used)
T2 construct: also called human CD70-Fc-trimer; Bio.CD70
T2 sequence: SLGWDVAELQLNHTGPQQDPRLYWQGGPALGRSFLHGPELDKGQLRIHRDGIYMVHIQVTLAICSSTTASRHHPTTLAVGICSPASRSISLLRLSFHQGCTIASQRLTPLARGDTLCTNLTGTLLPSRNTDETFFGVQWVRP

T3: human scCD3εγ (scCD3εγ_Avi-Bio) (human, biotin on the C-terminal Avi-tag (in vitro, BirA) where the biotinylated form was used)
T3 construct: Used for all SPR and HTRF results on human CD3; also called recombinant human CD3; human CD3
T3 chain: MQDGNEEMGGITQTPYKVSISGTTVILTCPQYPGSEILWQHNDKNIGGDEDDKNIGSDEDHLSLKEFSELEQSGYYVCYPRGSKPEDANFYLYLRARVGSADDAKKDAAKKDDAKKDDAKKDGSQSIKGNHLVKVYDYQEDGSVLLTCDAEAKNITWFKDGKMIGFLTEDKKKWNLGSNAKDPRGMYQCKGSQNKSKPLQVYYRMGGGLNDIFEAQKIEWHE

B1: DARPin® protein #28 (designed binder)
chain: DLGYKLLQAAYDGQLDEVRILLKAGADVNAKDSRGQTPLHYAASIGHLEIVEVLLKAGADVNAKDDHGWTPLHLAAWSGHLEIVEVLLKAGADVNAQDQEGTTPADLAAVQGHQDIAEVLQKAAGSPTPTPTTPTPTPTTPTPTPTGSDLGWKLLLAASRGQDDEVRILLAAGADVNAKDIDEGYTPLHIAAYYGHLEIVEVLLKAGADVNAKDRYGKTPLHLAAISGHEDIAEVLLKAGADVNAQDDKGDTPADLAADYGHEDIAEVLQKAAGSPTPTPTTPTPTPTTPTPTPTGSDLGQKLLEAAWAGQDDEVRELLKAGADVNAKNSRGWTPLHTAAQTGHLEIFEVLLKAGADVNAKDDKGVTPLHLAAALGHLEIVEVLLKAGADVNAQDSWGTTPADLAAKYGHEDIAEVLQKAA
notes: CD70-CD33-CD3; not shown: His-tag implied by anti-penta-His detection
B2: DARPin® protein #54 (designed binder)
chain: MRGSHHHHHHDLGKKLLEAARAGQDDEVRELLKAGADVNAKDYFSHTPLHLAARNGHLKIVEVLLKAGADVNAKDFAGKTPLHLAAADGHLEIVEVLLKAGADVNAQDIFGKTPADIAADAGHEDIAEVLQKAAGSPTPTPTTPTPTPTTPTPTPTGSDLGKKLLEAARAGQDDEVRELLKAGADVNAKDYFSHTPLHLAARNGHLKIVEVLLKAGADVNAKDFAGKTPLHLAAADGHLEIVEVLLKAGADVNAQDIFGKTPADIAADAGHEDIAEVLQKAAGSPTPTPTTPTPTPTTPTPTPTGSDLGYKLLQAAYDGQLDEVRILLKAGADVNAKDSRGQTPLHYAASIGHLEIVEVLLKAGADVNAKDDHGWTPLHLAAWSGHLEIVEVLLKAGADVNAQDQEGTTPADLAAVQGHQDIAEVLQKAAGSPTPTPTTPTPTPTTPTPTPTGSDLGKKLLEAALEGQLDEVRELLKAGADVNAKDQEGYTPLHLAAALGHLEIVEVLLKAGADVNAKDSIGRTPLHLAAYKGHLEIVEVLLKAGADVNAQDLLGETPADLAAEQGHQDIAEVLQKAAGSPTPTPTTPTPTPTTPTPTPTGSDLGVKLLRAAVHGQLDEVRILLKAGADVNAKDTDGETPLHYAAQFGHLEIVEVLLKAGADVNAKDAYGATPLHWAAWHGHLEIVEVLLKAGADVNAQDVSGATPADLAAKVGHQDIAEVLQKAAGSPTPTPTTPTPTPTTPTPTPTGSDLGQKLLEAAWAGQDDEVRELLKAGADVNAKNSRGWTPLHTAAQTGHLEIFEVLLKAGADVNAKDDKGVTPLHLAAALGHLEIVEVLLKAGADVNAQDSWGTTPADLAAKYGHEDIAEVLQKAA
notes: HSA-HSA-CD70-CD123-CD33-CD3
B3: DARPin® protein #53 (designed binder)
chain: MRGSHHHHHHDLGKKLLEAARAGQDDEVRELLKAGADVNAKDYFSHTPLHLAARNGHLKIVEVLLKAGADVNAKDFAGKTPLHLAAADGHLEIVEVLLKAGADVNAQDIFGKTPADIAADAGHEDIAEVLQKAAGSPTPTPTTPTPTPTTPTPTPTGSDLGYKLLQAAYDGQLDEVRILLKAGADVNAKDSRGQTPLHYAASIGHLEIVEVLLKAGADVNAKDDHGWTPLHLAAWSGHLEIVEVLLKAGADVNAQDQEGTTPADLAAVQGHQDIAEVLQKAAGSPTPTPTTPTPTPTTPTPTPTGSDLGKKLLEAALEGQLDEVRELLKAGADVNAKDQEGYTPLHLAAALGHLEIVEVLLKAGADVNAKDSIGRTPLHLAAYKGHLEIVEVLLKAGADVNAQDLLGETPADLAAEQGHQDIAEVLQKAAGSPTPTPTTPTPTPTTPTPTPTGSDLGVKLLRAAVHGQLDEVRILLKAGADVNAKDTDGETPLHYAAQFGHLEIVEVLLKAGADVNAKDAYGATPLHWAAWHGHLEIVEVLLKAGADVNAQDVSGATPADLAAKVGHQDIAEVLQKAAGSPTPTPTTPTPTPTTPTPTPTGSDLGQKLLEAAWAGQDDEVRELLKAGADVNAKNSRGWTPLHTAAQTGHLEIFEVLLKAGADVNAKDDKGVTPLHLAAALGHLEIVEVLLKAGADVNAQDSWGTTPADLAAKYGHEDIAEVLQKAA
notes: HSA-CD70-CD123-CD33-CD3
B4: DARPin® protein #30 (designed binder)
chain: DLGYKLLQAAYDGQLDEVRILLKAGADVNAKDSRGQTPLHYAASIGHLEIVEVLLKAGADVNAKDDHGWTPLHLAAWSGHLEIVEVLLKAGADVNAQDQEGTTPADLAAVQGHQDIAEVLQKAAGSPTPTPTTPTPTPTTPTPTPTGSDLGKKLLEAALEGQDDEVRELLKAGADVNAKDQEGYTPLHLAAALGHLEIVEVLLKAGADVNAKDSIGRTPLHLAAYKGHLEIVEVLLKAGADVNAQDLLGETPADLAAEQGHEDIAEVLQKAAGSPTPTPTTPTPTPTTPTPTPTGSDLGVKLLRAAFHGQDDEVRILLAAGADVNAKDTDGETPLHYAAQFGHLEIVEVLLKAGADVNAKDAYGATPLHWAAWHGHLEIVEVLLKAGADVNAQDVSGATPADLAAKVGHEDIAEVLQKAAGSPTPTPTTPTPTPTTPTPTPTGSDLGQKLLEAAWAGQDDEVRELLKAGADVNAKNSRGWTPLHTAAQTGHLEIFEVLLKAGADVNAKDDKGVTPLHLAAALGHLEIVEVLLKAGADVNAQDSWGTTPADLAAKYGHEDIAEVLQKAA
notes: CD70-CD123-CD33-CD3; not shown: His-tag implied by anti-penta-His detection

Experiments:
[1] = target: T4, human CD3 on primary human pan-T cells (human, UniProt P07766 23-207; P09693 23-182; P04234 22-171; P20963 22-164); assay: Mirrorball cytometry on primary human pan-T cells, 600 µM HSA
T4 construct: whole, on cells; Native complex on T cells isolated from PBMC; also called CD3 on Pan-T cells
Procedure: The determination of T cell binding was performed with primary human T cells using Mirrorball laser scanning imaging cytometry. Therefore, primary T cells were isolated from human peripheral blood mononuclear cells (PBMCs) using a pan-T cell purification kit (Miltenyi Biotec). A titration of DARPin® protein #27, DARPin® protein #28 and DARPin® protein #29 and DARPin® protein #30 were incubated with 50′000 pan-T cells per well in presence of 600 μM human serum albumin (to mimic physiological serum concentration) for 30 minutes at 4° C. Two benchmark T-cell engagers, AMG330 and flotetuzumab were applied as controls, targeting CD33 or CD123. After washing, CD3 binding was detected by 1:100-diluted anti-penta-His Alexa Fluor 488 antibody (Qiagen). After 30 min incubation at 4° C., cells were washed and resuspended in Cytofix fixation buffer (BD Biosciences) and counterstained by 5 μM DRAQ5 (Abcam) for 15 min at RT. Median of mean fluorescence intensities of Alexa Fluor 488 binding on far-red counterstained cells were measured by Mirrorball using Cellista software (SPT Labtech) and data was plotted using GraphPad Prism 8.

[2] = target: T5, biotinylated extracellular domain of human CD33 (SEQ ID NO: 87), Fc and Avi tagged (human, UniProt P20138 18-259, biotinylated with BirA-GST (Avi tag)); assay: SPR (ProteOn XPR36), target on GLC chip, DARPin as analyte
T5 construct: also called hCD33; human target hCD33

[3] = target: T1, biotinylated extracellular domain of …; assay: as above
[4] = target: T2, extracellular domain of human CD70 (SEQ …); assay: as above
human serum albumin = target: T6, human serum albumin (human, UniProt P02768 25-609); assay: as above
T6 construct: also called HSA; SA

[5] = target: T3, human scCD3εγ (scCD3εγ_Avi-Bio); assay: SPR (ProteOn), DARPin on GLC chip, scCD3εγ as analyte
Procedure: Similarly, the binding affinities of two purified ankyrin repeat proteins on recombinant human CD3 target were analyzed as described before. Briefly, DARPin® protein #53, DARPin® protein #54 in NaOAc pH 4.5 was coated on a GLC chip (BioRad) to a level of around 790-1500 resonance units (RU). The interaction of ankyrin repeat protein and human CD3 was then measured by injecting 300 μl running buffer (PBS, pH 7.4 containing 0.005% Tween 20®) containing serial dilutions of human scCD3εγ (56.4 μM), was diluted in PBST (PBS, pH 7.4 containing 0.005% Tween 20®) and covering a concentration range between 300 nM and 19 nM for multi-trace SPR measurements, followed by a running buffer flow for at least 10 minutes at a constant flow rate of 60 μl/min (off-rate measurement).
The regeneration was performed using 30 μl of 10 mM Glycine pH 2. The signals (i.e. resonance unit (RU) values) of the interspots and a reference injection (i.e. injection of running buffer only) were subtracted from the RU traces obtained after injection of CD3 (double-referencing). Binding parameters (KD, on-rate, off-rate) against CD3 were determined by using a standard Langmuir fit model.

T5 sequence (P20138 18-259 R69G): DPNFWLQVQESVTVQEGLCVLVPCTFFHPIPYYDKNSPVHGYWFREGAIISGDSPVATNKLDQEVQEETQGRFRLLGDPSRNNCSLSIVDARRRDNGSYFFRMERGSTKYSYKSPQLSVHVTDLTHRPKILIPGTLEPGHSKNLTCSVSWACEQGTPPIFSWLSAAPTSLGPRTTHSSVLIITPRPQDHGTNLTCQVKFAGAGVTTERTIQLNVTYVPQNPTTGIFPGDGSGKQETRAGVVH
T6 sequence (P02768 25-609 limits assumed): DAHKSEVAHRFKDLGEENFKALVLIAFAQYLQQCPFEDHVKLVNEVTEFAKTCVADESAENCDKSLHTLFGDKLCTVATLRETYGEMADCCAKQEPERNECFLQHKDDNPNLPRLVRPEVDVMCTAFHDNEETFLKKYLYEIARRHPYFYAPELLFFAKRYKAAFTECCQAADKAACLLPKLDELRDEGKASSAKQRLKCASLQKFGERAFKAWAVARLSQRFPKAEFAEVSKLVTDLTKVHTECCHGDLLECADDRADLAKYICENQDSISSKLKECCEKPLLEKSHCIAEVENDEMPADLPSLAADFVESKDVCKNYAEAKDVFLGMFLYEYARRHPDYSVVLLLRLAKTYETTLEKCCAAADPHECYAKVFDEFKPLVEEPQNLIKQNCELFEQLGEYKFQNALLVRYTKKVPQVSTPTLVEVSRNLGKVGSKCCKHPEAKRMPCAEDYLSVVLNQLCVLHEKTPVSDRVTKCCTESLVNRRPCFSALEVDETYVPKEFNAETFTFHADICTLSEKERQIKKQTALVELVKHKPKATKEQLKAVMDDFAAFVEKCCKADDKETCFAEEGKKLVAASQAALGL
T4 sequence (P07766 23-207, chain 1 of 4): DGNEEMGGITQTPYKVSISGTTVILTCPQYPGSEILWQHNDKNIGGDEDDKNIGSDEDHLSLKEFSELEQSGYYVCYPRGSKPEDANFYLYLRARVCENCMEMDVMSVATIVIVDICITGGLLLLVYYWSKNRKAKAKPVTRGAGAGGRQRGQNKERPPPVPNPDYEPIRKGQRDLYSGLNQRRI
T4 sequence (P09693 23-182, chain 2 of 4): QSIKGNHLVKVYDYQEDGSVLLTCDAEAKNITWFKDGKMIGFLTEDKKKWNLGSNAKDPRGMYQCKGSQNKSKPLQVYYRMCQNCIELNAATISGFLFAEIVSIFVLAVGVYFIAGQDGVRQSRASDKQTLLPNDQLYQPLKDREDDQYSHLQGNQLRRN
T4 sequence (P04234 22-171, chain 3 of 4): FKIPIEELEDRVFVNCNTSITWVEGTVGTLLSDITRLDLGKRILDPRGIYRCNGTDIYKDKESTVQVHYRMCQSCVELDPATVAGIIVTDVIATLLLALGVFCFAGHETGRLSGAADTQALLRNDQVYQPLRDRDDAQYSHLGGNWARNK
T4 sequence (P20963 22-164, chain 4 of 4): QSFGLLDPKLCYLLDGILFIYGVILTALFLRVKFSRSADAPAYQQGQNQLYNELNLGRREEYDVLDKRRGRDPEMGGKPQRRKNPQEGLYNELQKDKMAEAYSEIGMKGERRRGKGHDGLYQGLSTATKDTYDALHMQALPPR

| Binder | EC50 [1] [nM] | Kd [2] [nM] | Kd [3] [nM] | Kd [4] [nM] | Kd (human serum albumin) [nM] | Kd [5] [nM] | koff [5] [s⁻¹] | kon [5] [M⁻¹ s⁻¹] |
| --- | --- | --- | --- | --- | --- | --- | --- | --- |
| B1 | 1.41 | – | – | – | – | – | – | – |
| B2 | – | 8.2 | 33 | 0.61 | 1.2 | 129 | 0.0067 | 52000 |
| B3 | – | 12 | 8 | 0.7 | 24 | 139 | 0.0065 | 48000 |
| B4 | 1.8 | – | – | – | – | – | – | – |
